In paper PMC8226212, “LaPT2 Gene Encodes a Flavonoid Prenyltransferase in White Lupin” (Frontiers in Plant Science, 2021):

What was measured:
Test in all cases: HPLC product assay, yeast microsomes, Eadie-Hofstee plot
Assay type in all cases: biochemical, Lupinus albus
[1] = substrate: O=c1c(O)c(-c2ccc(O)cc2O)oc2cc(O)cc(O)c12; conditions: co-substrate DMAPP, 10 mM Mg2+, MOPS pH 7.0, 30°C
[2] = substrate: CC(C)=CCOP(=O)(O)OP(=O)(O)O; conditions: co-substrate 400 μM kaempferol, 10 mM Mg2+, MOPS pH 7.0, 30°C
[3] = substrate: O=c1c(O)c(-c2ccc(O)c(O)c2)oc2cc(O)ccc12; conditions: co-substrate DMAPP, 10 mM Mg2+, MOPS pH 7.0, 30°C
[4] = substrate: COc1ccc(-c2oc3cc(O)cc(O)c3c(=O)c2O)cc1; conditions: co-substrate DMAPP, 10 mM Mg2+, MOPS pH 7.0, 30°C
[5] = substrate: O=C1c2c(O)cc(O)cc2O[C@H](c2ccc(O)cc2)[C@H]1O; conditions: co-substrate DMAPP, 10 mM Mg2+, MOPS pH 7.0, 30°C
[6] = substrate: O=c1c(O)c(-c2ccc(O)c(O)c2)oc2cc(O)cc(O)c12; conditions: co-substrate DMAPP, 10 mM Mg2+, MOPS pH 7.0, 30°C
[7] = substrate: O=c1c(O)c(-c2ccc(O)cc2)oc2cc(O)cc(O)c12; conditions: co-substrate DMAPP, 10 mM Mg2+, MOPS pH 7.0, 30°C
[8] = substrate: O=c1c(O)c(-c2ccccc2)oc2cc(O)cc(O)c12; conditions: co-substrate DMAPP, 10 mM Mg2+, MOPS pH 7.0, 30°C

B1: LaPT2 (Lupinus albus) (protein)
chain: MGFVLAATSFPKAPSFTSGRSSWNSKEYTKNYYASSHVTTLWHKTGIIQKEPCFMMAWPQNLKLHCKVKGGDKRNYVMNAASGKSNEYETQDLDQRNNWGTLINALHVFFKFIRPTATLSLLLGATLTTLIAVEKLSDISAAYFIGLLQVMVVSSCMQVFMAGLNQLYDVEIDKINKPYLPLVSGELPFKNGVIIVATTFILGHLFPLIIGSGPLFWSFVFSSSLAIAYCADLPLLRWKRHSALTALNYIIDLGGVKPLGYVLHMQTYVFKRPPTFSRPLIFCMAMSSVFAIIIAIFKDITDMEGDEKFGIKSLSLHLGKKPVFWICVSLLQMAYVVAILMGTLSPFLWVKIAMGLGHGILASLVSYYANSVDLKSNPAIQSFYMFIWKLLTVEYFLIPLFR
notes: open reading frame in pDR196GW, yeast W303A1 microsomal fraction; contig deduced as 407 aa (GFP construct named 88-403); predicted 87-aa transit peptide, no truncation stated for the assay
B1 showed a Km [1] of 20.85 ± 3.79 µM, a Km [2] of 66.11 ± 7.54 µM and a Km [3] of 10.02 ± 3.19 µM. For the same protein, the Km [4] was 115.19 ± 34.25 µM, the Km [5] was 20.08 ± 4.44 µM and the Km [6] was 102.81 ± 6.41 µM. It also gave a Km [7] of 74.07 ± 3.78 µM and a Km [8] of 20.66 ± 2.91 µM.
